According to publication PMC10442425:
pKd: −log10 of the molar value.

Biological target: recombinant SARS-CoV-2 envelope (E) protein, His-tagged (SARS-CoV-2) (UniProt P0DTC4)
Experiment: SPR; Biacore 8K, 25 °C, PBS-P buffer; His-tagged E protein captured on NTA chip; recombinant human CD36 injected at 400 nM to 12.5 nM, parallel kinetics; 1:1 binding model

recombinant human CD36 protein (from UniProt P16671 1-472) (receptor)
pKd: 7.26
